# What was measured:
# [1] = target: T1, human insulin-like growth factor II (human, UniProt P01344 25-91); assay: ELISA on IGF-II, one Fab concentration (not given)
# T1 construct: also called IGF-II; IGF II
# Experimental: (§1) ELISA Binding Assay. Antigen was coated on narrow-well, 96-well plate at 50 ng/well overnight at 4° C. For phage ELISA, 10¹⁰ phage from each round of panning was incubated with antigen. Bound phage was detected with anti-M13-HRP polyclonal antibody (Pharmacia, Piscataway, N.J.). For soluble Fab binding assay, anti-Flag HRP conjugate was used to detect the binding.
# [2] = target: human insulin (human, UniProt P01308 25-54; P01308 90-110, limits assumed); assay: screening of a human naive phage library; assay not named here
# [3] = target: T2, recombinant human insulin-like growth factor I (human, UniProt P05019 49-118); assay: ELISA on IGF-I, one Fab concentration (not given), duplicate bars
# T2 construct: also called IGF-I; IGF I
# Experimental: as §1
# [4] = target: T2, recombinant human insulin-like growth …; assay: competition ELISA: m708 at 400 nM against the binding of IGF-I (50 nM) to soluble IGF-IR
# [5] = target: T1, human insulin-like growth factor II; assay: method not stated (FIG. 9)
# [6] = target: T2, recombinant human insulin-like growth …; assay: ELISA, Fab titrated on IGF-I
# Experimental: as §1
# [7] = target: T2, recombinant human insulin-like growth …; assay: competition ELISA: m706 at 100 nM against the binding of IGF-I (50 nM) to soluble IGF-IR
# T2 sequence (P05019 49-118 limits assumed): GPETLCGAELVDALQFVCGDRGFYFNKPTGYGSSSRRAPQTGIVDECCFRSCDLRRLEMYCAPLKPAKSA
# T1 sequence (P01344 25-91 limits assumed): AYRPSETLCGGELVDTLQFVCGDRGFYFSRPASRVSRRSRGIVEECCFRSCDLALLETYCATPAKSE
# human insulin, sequence (P01308 25-54 limits assumed, chain 1 of 2): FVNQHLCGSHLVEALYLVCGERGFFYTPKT
# human insulin, sequence (P01308 90-110 limits assumed, chain 2 of 2): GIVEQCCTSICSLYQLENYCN
binder,measurement,setting,value
"m705 Fab (Fab, V domains shown, also called No. 5; IGF-I specific mAb) VH: QVQLVQSGVEVKKPGASVKVPCKASGYTFTSYYMHWVRQAPGQGLEWMGIINPSGGSTSYAQKFQGRVTMTRDTSTSTVYMELSSLRSEDTAVYYCARDDFWSGAVGMDVWGQGTTVTVSS VL: DIQMTQSPATLSLSPGERATLSCRASQDVGSDLAWYQQKPGQPPRLLVSDASNRATGIPARFSGSGSGTDFKLTINSLEPEDSAVYYCQQRRRWPPGATFGGGTKVEIKR",binding result,[1],no binding
same,binding result,[2],no binding
same,binding result,[3],binds
"m708 Fab (Fab, V domains shown, also called No. 8) VH: QVQLQQSGAEVKKPGSSVKVSCKASGGTFSSYAISWVRQAPGQGLEWMGGIIPILGIANYAQKFQGRVTITADESTSTAYMELSSLRSEDTAVYYCARGPRGYSYNFDYWGQGTLVTVSS VL: not shown",binding result,[4],binds
"m708.2 IgG1 (antibody, V domains shown, also called IgG708.2) VH: QVQLQQSGAEVKKPGSSVKVSCKASGGTFSSYAISWVRQAPGQGLEWMGGIIPILGIANYAQKFQGRVTITADESTSTAYMELSSLRSEDTAVYYCARGPRGYSYNFDYWGQGTLVTVSS VL: DIQMTQSPSSLSASVGDRVTIACRASQTISRYLNWYQQKPGKAPKLLIYAASSLQSGVSSRFSGSGSGTEFTLTISSLQPEDFATYFCQQTYSPPITFGQGTRLEIKR",Kd,[5],~80 pM
"m708.2 Fab (Fab, V domains shown, also called clone m708.2) VH: QVQLQQSGAEVKKPGSSVKVSCKASGGTFSSYAISWVRQAPGQGLEWMGGIIPILGIANYAQKFQGRVTITADESTSTAYMELSSLRSEDTAVYYCARGPRGYSYNFDYWGQGTLVTVSS VL: DIQMTQSPSSLSASVGDRVTIACRASQTISRYLNWYQQKPGKAPKLLIYAASSLQSGVSSRFSGSGSGTEFTLTISSLQPEDFATYFCQQTYSPPITFGQGTRLEIKR",binding result,[6],binds
"m706 Fab (Fab, V domains shown, also called No. 6; IGF-I specific mAb) VH: EVQLVQSGVDVKKPGSSVKVSCKASGGTFSSYAISWVRQAPGQGLEWMGGIIPIFGTANYAQKFQGRVTITADESASTAYMELSSLRSEDTAVYYCASGYEGPLWAFDIWGQGTMVTVSS VL: SQSVLTQPPSVSAAPGQRVSISCSGSSSNIGNYHVSWYQHLPGRAPKLLIYDNSKRPSGIPDRFSGSKSGTSATLDITGLQTGDEGDYYCATWDTSLRWVFGTGTKVTVL",binding result,[1],no binding
same,binding result,[2],no binding
same,binding result,[7],binds
